Here are results for ten variants from IntAct's records for PubMed 31515488.

B1: UBX domain-containing protein 6 (Homo sapiens), Q9BZV1 (parent)
chain: MKKFFQEFKADIKFKSAGPGQKLKESVGEKAHKEKPNQPAPRPPRQGPTNEAQMAAAAALARLEQKQSRAWGPTSQDTIRNQVRKELQAEATVSGSPEAPGTNVVSEPREEGSAHLAVPGVYFTCPLTGATLRKDQRDACIKEAILLHFSTDPVAASIMKIYTFNKDQDRVKLGVDTIAKYLDNIHLHPEEEKYRKIKLQNKVFQERINCLEGTHEFFEAIGFQKVLLPAQDQEDPEEFYVLSETTLAQPQSLERHKEQLLAAEPVRAKLDRQRRVFQPSPLASQFELPGDFFNLTAEEIKREQRLRSEAVERLSVLRTKAMREKEEQRGLRKYNYTLLRVRLPDGCLLQGTFYARERLGAVYGFVREALQSDWLPFELLASGGQKLSEDENLALNECGLVPSALLTFSWDMAVLEDIKAAGAEPDSILKPELLSAIEKLL
partner: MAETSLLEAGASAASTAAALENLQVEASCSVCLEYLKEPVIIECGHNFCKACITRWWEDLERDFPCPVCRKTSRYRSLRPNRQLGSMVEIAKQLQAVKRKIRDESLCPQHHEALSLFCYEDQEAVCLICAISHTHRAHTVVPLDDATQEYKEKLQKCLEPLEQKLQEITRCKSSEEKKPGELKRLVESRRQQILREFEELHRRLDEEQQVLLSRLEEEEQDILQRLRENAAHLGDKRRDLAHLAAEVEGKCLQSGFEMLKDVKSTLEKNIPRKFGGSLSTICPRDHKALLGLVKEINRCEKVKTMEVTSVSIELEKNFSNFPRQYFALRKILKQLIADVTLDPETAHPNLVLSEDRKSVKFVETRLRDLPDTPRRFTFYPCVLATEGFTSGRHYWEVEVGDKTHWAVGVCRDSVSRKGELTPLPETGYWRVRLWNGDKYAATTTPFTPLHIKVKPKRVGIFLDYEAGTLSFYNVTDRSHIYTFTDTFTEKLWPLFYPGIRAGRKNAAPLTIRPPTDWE
B2: Tubby-related protein 3 (Homo sapiens), O75386 (parent)
chain: MEASRCRLSPSGDSVFHEEMMKMRQAKLDYQRLLLEKRQRKKRLEPFMVQPNPEARLRRAKPRASDEQTPLVNCHTPHSNVILHGIDGPAAVLKPDEVHAPSVSSSVVEEDAENTVDTASKPGLQERLQKHDISESVNFDEETDGISQSACLERPNSASSQNSTDTGTSGSATAAQPADNLLGDIDDLEDFVYSPAPQGVTVRCRIIRDKRGMDRGLFPTYYMYLEKEENQKIFLLAARKRKKSKTANYLISIDPVDLSREGESYVGKLRSNLMGTKFTVYDRGICPMKGRGLVGAAHTRQELAAISYETNVLGFKGPRKMSVIIPGMTLNHKQIPYQPQNNHDSLLSRWQNRTMENLVELHNKAPVWNSDTQSYVLNFRGRVTQASVKNFQIVHKNDPDYIVMQFGRVADDVFTLDYNYPLCAVQAFGIGLSSFDSKLACE
B3: Serine/threonine-protein kinase PAK 6 (Homo sapiens), Q9NQU5 (parent)
chain: MFRKKKKKRPEISAPQNFQHRVHTSFDPKEGKFVGLPPQWQNILDTLRRPKPVVDPSRITRVQLQPMKTVVRGSAMPVDGYISGLLNDIQKLSVISSNTLRGRSPTSRRRAQSLGLLGDEHWATDPDMYLQSPQSERTDPHGLYLSCNGGTPAGHKQMPWPEPQSPRVLPNGLAAKAQSLGPAEFQGASQRCLQLGACLQSSPPGASPPTGTNRHGMKAAKHGSEEARPQSCLVGSATGRPGGEGSPSPKTRESSLKRRLFRSMFLSTAATAPPSSSKPGPPPQSKPNSSFRPPQKDNPPSLVAKAQSLPSDQPVGTFSPLTTSDTSSPQKSLRTAPATGQLPGRSSPAGSPRTWHAQISTSNLYLPQDPTVAKGALAGEDTGVVTHEQFKAALRMVVDQGDPRLLLDSYVKIGEGSTGIVCLAREKHSGRQVAVKMMDLRKQQRRELLFNEVVIMRDYQHFNVVEMYKSYLVGEELWVLMEFLQGGALTDIVSQVRLNEEQIATVCEAVLQALAYLHAQGVIHRDIKSDSILLTLDGRVKLSDFGFCAQISKDVPKRKSLVGTPYWMAPEVISRSLYATEVDIWSLGIMVIEMVDGEPPYFSDSPVQAMKRLRDSPPPKLKNSHKVSPVLRDFLERMLVRDPQERATAQELLDHPFLLQTGLPECLVPLIQLYRKQTSTC
B4: Notch homolog 2 N-terminal-like protein A (Homo sapiens), Q7Z3S9 (parent)
chain: MCVTYHNGTGYCKCPEGFLGEYCQHRDPCEKNRCQNGGTCVAQAMLGKATCRCASGFTGEDCQYSTSHPCFVSRPCLNGGTCHMLSRDTYECTCQVGFTGKECQWTDACLSHPCANGSTCTTVANQFSCKCLTGFTGQKCETDVNECDIPGHCQHGGTCLNLPGSYQCQCLQGFTGQYCDSLYVPCAPSPCVNGGTCRQTGDFTFECNCLPETVRRGTELWERDREVWNGKEHDEN
partner: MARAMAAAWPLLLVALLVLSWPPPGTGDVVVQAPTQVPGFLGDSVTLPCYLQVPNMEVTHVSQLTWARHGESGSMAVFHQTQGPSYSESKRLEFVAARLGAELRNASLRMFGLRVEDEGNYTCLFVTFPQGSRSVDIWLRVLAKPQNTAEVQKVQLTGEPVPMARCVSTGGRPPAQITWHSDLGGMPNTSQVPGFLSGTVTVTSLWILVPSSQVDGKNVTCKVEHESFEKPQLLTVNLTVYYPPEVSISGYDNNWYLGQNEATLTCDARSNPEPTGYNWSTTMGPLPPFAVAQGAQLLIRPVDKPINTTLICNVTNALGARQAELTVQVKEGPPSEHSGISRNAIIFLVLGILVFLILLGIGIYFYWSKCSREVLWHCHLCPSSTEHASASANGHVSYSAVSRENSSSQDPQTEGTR
B5: Fructose-bisphosphate aldolase C (Homo sapiens), P09972 (parent)
chain: MPHSYPALSAEQKKELSDIALRIVAPGKGILAADESVGSMAKRLSQIGVENTEENRRLYRQVLFSADDRVKKCIGGVIFFHETLYQKDDNGVPFVRTIQDKGIVVGIKVDKGVVPLAGTDGETTTQGLDGLSERCAQYKKDGADFAKWRCVLKISERTPSALAILENANVLARYASICQQNGIVPIVEPEILPDGDHDLKRCQYVTEKVLAAVYKALSDHHVYLEGTLLKPNMVTPGHACPIKYTPEEIAMATVTALRRTVPPAVPGVTFLSGGQSEEEASFNLNAINRCPLPRPWALTFSYGRALQASALNAWRGQRDNAGAATEEFIKRAEVNGLAAQGKYEGSGEDGGAAAQSLYIANHAY
partner: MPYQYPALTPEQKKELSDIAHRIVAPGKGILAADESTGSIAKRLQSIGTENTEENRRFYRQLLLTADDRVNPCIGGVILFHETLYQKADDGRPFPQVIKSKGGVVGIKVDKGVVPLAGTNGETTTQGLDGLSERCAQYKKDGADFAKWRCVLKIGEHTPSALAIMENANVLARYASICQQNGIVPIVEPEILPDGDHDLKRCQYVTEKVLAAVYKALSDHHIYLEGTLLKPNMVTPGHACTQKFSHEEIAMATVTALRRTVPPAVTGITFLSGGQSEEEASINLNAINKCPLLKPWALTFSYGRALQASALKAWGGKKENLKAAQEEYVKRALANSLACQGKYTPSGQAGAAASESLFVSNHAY

Variants of B1 are the subject of the first assay. Particulars: with tri39_human TRIM39, Q9HCM9.
For A361V, the “effect of a mutation on the interaction” value is recorded as “with no effect”.

In a further assay the parent is B2. As to conditions: with maga6_human MAGEA6, P43360.
Sequence of maga6_human MAGEA6, P43360 (P43360 whole entry): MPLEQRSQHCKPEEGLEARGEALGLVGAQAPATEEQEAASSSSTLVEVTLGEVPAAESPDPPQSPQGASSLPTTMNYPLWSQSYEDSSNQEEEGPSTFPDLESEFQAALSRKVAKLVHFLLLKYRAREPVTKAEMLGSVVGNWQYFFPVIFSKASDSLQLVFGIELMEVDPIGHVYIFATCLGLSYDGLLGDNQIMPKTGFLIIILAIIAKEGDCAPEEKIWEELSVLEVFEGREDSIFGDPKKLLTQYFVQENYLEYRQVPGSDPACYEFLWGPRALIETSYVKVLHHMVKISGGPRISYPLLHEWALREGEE
Turning to A296E, the “effect of a mutation on the interaction” value is reported as “with no effect”.
Take G267S: the “effect of a mutation on the interaction” value is “disrupting interaction strength”.

The variants in the next assay derive from B2. Particulars: with anr54_human ANKRD54, Q6NXT1.
Sequence of anr54_human ANKRD54, Q6NXT1 (Q6NXT1 whole entry): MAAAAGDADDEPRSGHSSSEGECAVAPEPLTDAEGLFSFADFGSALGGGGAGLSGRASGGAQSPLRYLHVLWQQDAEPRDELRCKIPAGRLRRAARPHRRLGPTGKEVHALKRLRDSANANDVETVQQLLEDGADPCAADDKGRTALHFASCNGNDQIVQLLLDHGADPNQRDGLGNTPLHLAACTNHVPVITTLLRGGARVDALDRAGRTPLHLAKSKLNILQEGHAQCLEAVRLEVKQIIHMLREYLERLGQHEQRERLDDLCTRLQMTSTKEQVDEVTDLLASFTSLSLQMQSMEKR
Consider G267S, for which the “effect of a mutation on the interaction” value is listed as “with no effect”.

The variants in a further assay derive from B3. As to conditions: with rhoj_human RHOJ.
For V54M, the “effect of a mutation on the interaction” value is listed as “with no effect”.
With L514R, the “effect of a mutation on the interaction” value is listed as “disrupting interaction strength”.
Still for that read-out and setting: next, R103C: “with no effect”; H215R: “with no effect”.

In a further assay the parent is B4. Particulars: with pvr_human PVR.
Turning to A115T, the “effect of a mutation on the interaction” value is listed as “with no effect”.
The same measure, in the same setting: the entry for R74Q is “with no effect”.

The variants in the next assay derive from B5. As to conditions: with aldoa_human ALDOA.
On to N312S, for which the “effect of a mutation on the interaction” value is on record as “with no effect”.
